# Data: patent publication US20230265185A1 (NATIONAL RESEARCH COUNCIL OF CANADA, published 2023)
# B1: hCD221ug-80 (VHH)
# VHH: QVQLVESGGGLVQPGGSLRLSCTFSGFTLDYYVMVWFRQAPGKEREAVSCITSDGVTYYADSVKGRFTISRDNAKNTVYLQMNRVKPEDTAVYYCAVDKPFYDGGIQYTCPVDFDSWGQGAQVTVSS
# modifications: single biotin at the VHH C-terminal (biotinylation signal sequence)
# notes: llama VHH, expressed in E. coli TG1, IMAC purified, monomeric SEC fraction; also called VHH # 1; 2-hCD22 1ug-80
# B2: hCD221ug-13 (VHH)
# VHH: QVQLVESGGGLVQAGDSLRLSCAGSGGSFSSVTMAWFRQAPGKDREFVAAITWSSPSTYYADSVKGRFTISRDNAKNTVYLQMNSLKPEDTAVYYCAGGRTGRGTSADTDEYNYWGQGTQVTVSS
# modifications: single biotin at the VHH C-terminal (biotinylation signal sequence)
# notes: llama VHH, expressed in E. coli TG1, IMAC purified, monomeric SEC fraction; also called VHH # 21; 1-hCD22 1ug-13
# B3: hCD221ug-61 (VHH)
# VHH: QVQLVESGGGLVQAGGSLRLSCAASMSSFSQYVMYWYRQAPGKQRELVATITSYSNTNYADSVKGRFTISRDNAKSIAYLQMDSLKPEDTAVYYCNAQYGSTFIRNHWDDWGQGTQVTVSS
# modifications: single biotin at the VHH C-terminal (biotinylation signal sequence)
# notes: llama VHH, expressed in E. coli TG1, IMAC purified, monomeric SEC fraction; also called VHH # 14; 3-hCD22 1ug-61
# B4: hCD221ug-36 (VHH)
# VHH: EVQLVDSGGGLVQAGGSLRVSCEASGITFSRAAMGWYRQRPGKERERVAVVNSDSSTIYADSVKGRFTISRDNAKNTVYLQMNSLEPEDTAVYYCWSPGFGSYWGQGTQVTVSS
# modifications: single biotin at the VHH C-terminal (biotinylation signal sequence)
# notes: llama VHH, expressed in E. coli TG1, IMAC purified, monomeric SEC fraction; also called VHH # 22; 4-hCD22 1ug-36
# B5: hCD221ug-10 (VHH)
# VHH: QVQLVESGGGLVQAGGSLSVSCTASESTFSIMMGWFRQAPGKQREMVAVINSAGSTNYADSAEGRFTISRDLAKKTVSLQMNSLKPEDTAVYYCYVDGYFGQGTQVTVSS
# modifications: single biotin at the VHH C-terminal (biotinylation signal sequence)
# notes: llama VHH, expressed in E. coli TG1, IMAC purified, monomeric SEC fraction; also called VHH # 23; 5-hCD22 1ug-10
# B6: hCD22pas-32 (VHH)
# VHH: QVQLVESGGGLVQAGGSLRLSCAVSGRIFRSYVLGWFRQAPGKERELVARIGWSDTYYADSVKGRFTISRDNAKNTVDLQMNSLKPEDTAVYYCAANSPPYGPQRDEFGYWGQGTQVTVSS
# modifications: single biotin at the VHH C-terminal (biotinylation signal sequence)
# notes: llama VHH, expressed in E. coli TG1, IMAC purified, monomeric SEC fraction; also called VHH # 15; 6-hCD22 pas-32
# B7: hCD22pas-64 (VHH)
# VHH: QVQLVESGGGLVQAGGSLRLSCAASGSTFSLNTMAWYRQAPGNQREYVAAASSDGYTNYADSVRGRFTISRDNDKNTMYLQMNSLRPEDTAVYYCTWGTGRFADYIYWGQGTQVTVSS
# modifications: single biotin at the VHH C-terminal (biotinylation signal sequence)
# notes: llama VHH, expressed in E. coli TG1, IMAC purified, monomeric SEC fraction; also called VHH # 25; 7-hCD22 pas-64
# B8: hCD22pas-24 (VHH)
# VHH: QVQLVESGGGLVQAGGSLRLSCSASGITSSINSMGWHRQAPGKQRELVASIGRGGSGSTKYADSGKGRFLISRDNNKNILFLEMNSLKPEDTADYYCLEVTTDLSSYWGRGTQVTVSS
# modifications: single biotin at the VHH C-terminal (biotinylation signal sequence)
# notes: llama VHH, expressed in E. coli TG1, IMAC purified, monomeric SEC fraction; also called VHH # 26; 8-hCD22 pas-24
# What was measured:
# [1] = molecular target: T1, recombinant extracellular domain of the predominant human CD22-beta isoform (CD22-ECD) (human, UniProt P20273 20-687, CHO-expressed glycoprotein. Capture on an SA chip implies biotinylation, but the patent does not state it for SPR.); assay: SPR, Biacore T200, VHH over immobilized CD22-ECD
# T1 construct: Expressed in CHO-3E7 cells, IMAC and SEC purified, monomeric fraction; Results say it was immobilized onto a CM5 dextran chip; also called human CD22-ECD; hCD22 ecto-domain
# T1 sequence: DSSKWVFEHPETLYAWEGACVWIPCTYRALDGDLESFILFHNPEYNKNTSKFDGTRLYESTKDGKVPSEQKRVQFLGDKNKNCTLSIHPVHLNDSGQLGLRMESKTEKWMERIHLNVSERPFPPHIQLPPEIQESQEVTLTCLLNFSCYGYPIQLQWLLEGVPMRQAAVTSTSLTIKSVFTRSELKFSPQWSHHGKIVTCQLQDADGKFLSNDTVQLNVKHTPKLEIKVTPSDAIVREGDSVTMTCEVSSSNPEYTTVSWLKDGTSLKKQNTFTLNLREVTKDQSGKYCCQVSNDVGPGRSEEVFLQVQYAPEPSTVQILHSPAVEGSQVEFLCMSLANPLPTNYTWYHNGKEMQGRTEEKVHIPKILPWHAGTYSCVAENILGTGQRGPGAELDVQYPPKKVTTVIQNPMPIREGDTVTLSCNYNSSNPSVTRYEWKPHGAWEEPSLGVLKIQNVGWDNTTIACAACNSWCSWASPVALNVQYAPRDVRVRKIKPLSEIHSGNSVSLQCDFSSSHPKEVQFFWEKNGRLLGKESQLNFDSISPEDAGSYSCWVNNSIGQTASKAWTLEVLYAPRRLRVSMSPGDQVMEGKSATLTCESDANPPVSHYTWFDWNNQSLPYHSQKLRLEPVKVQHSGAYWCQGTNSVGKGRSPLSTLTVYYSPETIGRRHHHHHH
# Description: For surface Plasmon resonance, 21 selected VHHs were passed though size exclusion columns, superdex 75 (GE Healthcare), respectively, in 10 mM HEPES, pH 7.4, containing 150 mM NaCl, 3 mM EDTA, monomeric sdAb fractions were collected and protein concentrations were determined by measuring absorbance at 280 nm (A280). Analysis were performed with Biacore T200 instrument (GE Healthcare). All measurements were carried out at 25° C. in 10 mM HEPES, pH 7.4, containing 150 mM NaCl, 3 mM EDTA and 0.005% surfactant P20 (GE Healthcare). Approximately 1919 RUs of the recombinant monomeric CD22-ECD (obtained after SEC purification of the CD22-ECD) were captured on SA sensor chip (GE Healthcare) at a flow rate of 5 uL/min. Various concentration of the monomeric VHHs were injected over CD22-ECD surface, respectively using an SA surface as a reference at a flow rate of 40 µL/min. Surfaces were generated by washing with running buffer. Data were analysed with BIAevaluation 4.1 software.
# The monomeric fraction of all 21 VHHs were used for SPR experiment where the human CD22-ECD was immobilized onto the CM5 dextran chip and various VHH concentration (0.6-400 nM) were passed over the sensor chip. […] All of the data collected fit a 1:1 binding model.
# [2] = molecular target: T2, hCD22 fragment Bin 5, IVR5 (aa391-490), displayed on yeast cells (human, UniProt P20273 410-509); assay: yeast display cell ELISA
# T2 construct: range 391-490; Range is counted on the mature ECD, not on the UniProt entry; on P20273 it would be 410-509 (my arithmetic); not shown: Aga2-HA display fusion partner of vector pPNL6; MYC tag
# T2 sequence (looked up): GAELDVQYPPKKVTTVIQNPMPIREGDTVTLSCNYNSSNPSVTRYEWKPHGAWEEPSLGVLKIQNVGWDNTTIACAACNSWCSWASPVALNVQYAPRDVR
# Description: (§1) The YSD vector (pPNL6) was from The Pacific Northwest National Laboratory, USA. […] The HRP activity was assayed with substrate TMB (tetramethyl benzidine) according to the manufacture’s conditions and read at OD₄₅₀.
# (§2) The wells that gave rise to OD₄₅₀ above 0.25 were highlighted, indicating significant antibody-antigen interactions. All the sdAbs tested except hCd22_1ug-14 were assigned to specific Bin(s).
# [3] = molecular target: T3, hCD22 fragment Bin 2, IVR2 (aa111-230), displayed on yeast cells (human, UniProt P20273 130-249); assay: yeast display cell ELISA
# T3 construct: range 111-230; Range is counted on the mature ECD, not on the UniProt entry; on P20273 it would be 130-249 (my arithmetic); not shown: Aga2-HA display fusion partner of vector pPNL6; MYC tag
# T3 sequence (looked up): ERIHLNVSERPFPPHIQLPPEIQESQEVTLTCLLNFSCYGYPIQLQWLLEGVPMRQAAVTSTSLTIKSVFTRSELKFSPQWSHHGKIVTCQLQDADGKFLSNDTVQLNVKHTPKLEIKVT
# Description: as §1, §2
# [4] = molecular target: T4, hCD22 fragment Bin 4, IVR4 (aa303-405), displayed on yeast cells (human, UniProt P20273 322-424); assay: yeast display cell ELISA
# T4 construct: Range is counted on the mature ECD, not on the UniProt entry; on P20273 it would be 322-424 (my arithmetic); also called CD22 Sub-Domain 4; not shown: Aga2-HA display fusion partner of vector pPNL6; MYC tag
# T4 sequence (looked up): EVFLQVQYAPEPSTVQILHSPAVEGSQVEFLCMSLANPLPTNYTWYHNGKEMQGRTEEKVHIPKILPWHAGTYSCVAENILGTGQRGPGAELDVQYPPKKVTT
# Description: as §1, §2
# [5] = molecular target: T5, hCD22 fragment Bin 1, IVR1 (aa1-135), displayed on yeast cells (human, UniProt P20273 20-154); assay: yeast display cell ELISA
# T5 construct: range 1-135; Range is counted on the mature ECD, not on the UniProt entry; on P20273 it would be 20-154 (my arithmetic); also called CD22 Sub-Domain 1; not shown: Aga2-HA display fusion partner of vector pPNL6; MYC tag
# T5 sequence (looked up): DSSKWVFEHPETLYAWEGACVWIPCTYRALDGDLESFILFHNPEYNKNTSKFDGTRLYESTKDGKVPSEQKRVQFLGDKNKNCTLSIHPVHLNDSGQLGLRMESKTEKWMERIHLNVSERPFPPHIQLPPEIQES
# Description: as §1, §2
Binder,Kd [1] [nM],koff [1] [s⁻¹],kon [1] [M⁻¹ s⁻¹],binding result [2],binding result [3],binding result [4],binding result [5]
B1,30.3,0.000633,20900,no binding (tested: OD450 not above 0.25; sdAb 250 nM),no binding (tested: OD450 not above 0.25; sdAb 250 nM),no binding (tested: OD450 not above 0.25; sdAb 250 nM),–
B2,2.91,0.000675,232000,no binding (tested: OD450 not above 0.25; sdAb 250 nM),no binding (tested: OD450 not above 0.25; sdAb 250 nM),–,no binding (tested: OD450 not above 0.25; sdAb 250 nM)
B3,0.546,0.000681,1.25e+06,no binding (tested: OD450 not above 0.25; sdAb 250 nM),no binding (tested: OD450 not above 0.25; sdAb 250 nM),no binding (tested: OD450 not above 0.25; sdAb 250 nM),no binding (tested: OD450 not above 0.25; sdAb 250 nM)
B4,9.59,0.00114,119000,no binding (tested: OD450 not above 0.25; sdAb 250 nM),no binding (tested: OD450 not above 0.25; sdAb 250 nM),no binding (tested: OD450 not above 0.25; sdAb 250 nM),no binding (tested: OD450 not above 0.25; sdAb 250 nM)
B5,3.68,0.00176,477000,no binding (tested: OD450 not above 0.25; sdAb 250 nM),no binding (tested: OD450 not above 0.25; sdAb 250 nM),no binding (tested: OD450 not above 0.25; sdAb 250 nM),no binding (tested: OD450 not above 0.25; sdAb 250 nM)
B6,23.4,0.00369,158000,no binding (tested: OD450 not above 0.25; sdAb 250 nM),no binding (tested: OD450 not above 0.25; sdAb 250 nM),no binding (tested: OD450 not above 0.25; sdAb 250 nM),no binding (tested: OD450 not above 0.25; sdAb 250 nM)
B7,250,0.0271,108000,no binding (tested: OD450 not above 0.25; sdAb 250 nM),no binding (tested: OD450 not above 0.25; sdAb 250 nM),no binding (tested: OD450 not above 0.25; sdAb 250 nM),no binding (tested: OD450 not above 0.25; sdAb 250 nM)
B8,26,0.00386,148000,no binding (tested: OD450 not above 0.25; sdAb 250 nM),no binding (tested: OD450 not above 0.25; sdAb 250 nM),no binding (tested: OD450 not above 0.25; sdAb 250 nM),no binding (tested: OD450 not above 0.25; sdAb 250 nM)
